Results published in the DeepSol protein solubility set.

Experiment: soluble on expression in E. coli; label from the status in PepcDB or PDB records

Question: Which “soluble on expression in E. coli” value does the source give for “MGSDKIHHHHHHMNDLSRSPYILEMRNVSKTFPGVKALDGINLKVKRGTIHALMGENGAGKSTLMKILYGIYTPDAGGELILDDKPFKPSAPIDAIRTGLTMVPQEISPAGNLTIADNFYLGREITRSKFFLNQKEMDCKTAEILNELGIPMDVTAKMSDVSVAKAQLVAIATAVSNDAKVIIMDEPTTALTEVEVEQLYKIIETVRQRGISIIFISHKLDEVFRVSDEITVIRDGQYVGTKLTSEVTKDELISMMVGRDMSEMFQRERIVISDEVVLEIKNFSRAGKYHDINFQVRRGEIFGIAGLVGAGRSEIVEGLFGYKLADSGEIYVHGEKADIKTPLDAMKYKIGFVTEDRKLTGLFLNLSITDNMIMPRMSPYLENFLVSVTKAQKSANAQKDKLKIKAPNVEVITNNLSGGNQQKVLLARWLLLEPDILILDEPTKGIDVGAKAELYKLMVELAKQGKSIIMITSDMLELLSMSDRVMVMHEGRVAGIIPQEELTQERVLELASGLGQV” here?
Answer: Its value is “not soluble”.

Question: Which “soluble on expression in E. coli” value does the source give for “MPLITTETGKKMHVLEDGRKLITVIPGDGIGPECVEATLKVLEAAKAPLAYEVREAGASVFRRGIASGVPQETIESIRKTRVVLKGPLETPVGYGEKSANVTLRKLFETYANVRPVREFPNVPTPYAGRGIDLVVVRENVEDLYAGIEHMQTPSVAQTLKLISWKGSEKIVRFAFELARAEGRKKVHCATKSNIMKLAEGTLKRAFEQVAQEYPDIEAVHIIVDNAAHQLVKRPEQFEVIVTTNMNGDILSDLTSGLIGGLGFAPSANIGNEVAIFEAVHGSAPKYAGKNVINPTAVLLSAVMMLRYLEEFATADLIENALLYTLEEGRVLTGDVVGYDRGAKTTEYTEAIIQNLGKTPRKTQVRGYKPFRLPQVDGAIAPIVPRSRRVVGVDVFVETNLLPEALGKALEDLAAGTPFRLKMISNRGTQVYPPTGGLTDLVDHYRCRFLYTGEGEAKDPEILDLVSRVASRFRWMHLEKLQEFDGEPGFTKAQGED” here?
Answer: The value was “soluble”.

Question: Which “soluble on expression in E. coli” value does the source give for “MGSDKIHHHHHHDDNSYSLGDIWIAVATVVPEGNNVYYLRLDDGDKLWPAATNYPNYQPKPNQRALVNFTILADSTQSNLGGFSHYIKVNAIHNILTKSIAKNEGAANDSIYGTDPVSIYNNNMWIGDGYLNIYFETLWGGKTAHFINLIQPDAENDPYTLEFRHNAYDDPQYTIGAGRVAFNLSSLPDTKGETVDLVVNYWTSEGKQAYKLKYNSDKTKMEDTSQGYTNDSISNITDMK” here?
Answer: The value was “not soluble”.

Question: With “VWVSENIERLIGYTPGEALAPGWWLSHLYPDDREQVLERQPILLSDGQLTHDYRFYHRDGRIIWILDELRLIRNADGQPHEVVGTWLDIS” as the sequence, how does the “soluble on expression in E. coli” value read?
Answer: The value was “not soluble”.

Question: Which “soluble on expression in E. coli” value does the source give for “MLSTEDFDFDLPEELIAQTPLKDRASSRLLVVNKETGDMEDKHFHDILDELQPGDALVMNNTRVLPARLYGEKPETGGHLEVLLLTNTEGDTWETLIKPAKRAKVGTEIQFGDGRLKAVVKEELEHGGRIIEFKYDGIFLEILESLGEMPLPPYIKERLDDPDRYQTVYAEENGSAAAPTAGLHFTKELLEEIKAKGVHLVYLTLHVGLGTFRPVSVDNIEEHHMHSEFYRLTEEAAKQLNEVRQAGGRIVAVGTTSIRTLETIGTKFNGEIQADSGWTDIFITPGYQFKVVEAFSTNFHLPKSTLVMLVSAFAGKDLTLAAYQHAIEEKYRFFSFGDAMFIK” here?
Answer: Its value is “not soluble”.

Question: Which “soluble on expression in E. coli” value does the source give for “GSMSFLGFGGGQPQLSSQQKIQAAEAELDLVTDMFNKLVNNCYKKCINTSYSEGELNKNESSCLDRCVAKYFETNVQVGENMQKMGQSFNAAGKF” here?
Answer: Its value is “soluble”.

Question: With “MSANLPPAFKPIAHYIKIANENASRDPVIYYWSLLCMALGPVETTFDEISWKLLQTSIRLEKDHINDRDSLREYIDEPGGVVNNCQRAQNISMEIEQKNVSCEKLREKIAKINQKILIGKGKLSEVNEELSKKQNFEESLKQKIEIMELQINKNQSKKDKEVKSINVLIRLVAYRKLTLIKEVMDLFKVKIDGGPASEAITTKNCQCQLIDTIRGLHIPQITHIFNHSEAPTLTALQNLTHLFNVICKVLHFAPKYPILTNLQIINPIDQKSSIFTEKCWKKKADREKLIEGMSWLSKNISHLRESCGIPTMATDRILGTLEEWIRLVIRKETVFERPINSIFSPANLLIDYQIPNISYHS” as the sequence, how does the “soluble on expression in E. coli” value read?
Answer: The value was “not soluble”.

Question: Which “soluble on expression in E. coli” value does the source give for “MGDIDYQAIEFAYTKCADQQRDTPARHCVIVVGAGPVGLTTALDLARQGLRVVVLDDDYRLSTGSRAICFAKRTLEIWDRLGVGQRMVDKGVSWNVGKVFFRDQEVWRFDLLPEPGHRRPAFINLQQYYAEGYLHELASAQPGIELRWKSKVVGVAQQADGVQVTVDTPDGAYALHVDWLVACDGARSPVRKLLDLETHGRVFKDRFLIADVKMAADYPAERWFWFDPPFHPNQSVLLHMQPDNVWRIDFQLGWNADPVEAVKPENVLPRIRALLGPDADFELEWVSVYTFACERMDHFRHGRVVFAGDSAHRVSPFGARGANSGVQDAENLAWKLKLVLAGHAPESLIDSYAAEREYAADENILNSSRSTDFITPKSEVSRTFRNAVLNLARQHPFARTLVNSGRLSVPAAYADSPLNTPDSDPYAGTMRPGAVALDAPVRADAQPGWWLSQLDGGFALALFCGAETPRADMLDALRALQQDEVPVQPILVCDAGAAPAAAPAGVRVVEDSEGWLARRYDARPGTCYLIRPDQHIAARFRAFDAQAVRRALARAIGRALEHHHHHH” here?
Answer: The value was “not soluble”.

Question: Which “soluble on expression in E. coli” value does the source give for “MAEASPQPGRYFCHCCSVEIVPRLPDYICPRCESGFIEELPEETRNTENGSAPSTAPTDQNRQPFENVDQHLFTLPQGYSQFAFGIFDDSFEIPTFPPGAQADDGRDPESRREREHQSRHRYGARQPRARLTARRATGRHEGVPTLEGIIQQLVNGIISPAAVPSLGLGPWGVLHSNPMDYAWGANGLDTIITQLLNQFENTGPPPADKEKIQALPTVPVTEEHVGSGLECPVCKEDYALGESVRQLPCNHLFHDSCIVPWLEQHDSCPVCRKSLTGQNTATNPPGLTGVGFSSSSSSSSSSSPSNENATSNS” here?
Answer: Its value is “soluble”.

Question: With “MGSDKIHHHHHHMNYLVYQSYGSKDILNECCYSILSLLKHGINKNETRIVIYTDQPEYFSFLPAATLEFVQMSADIIADYKGVHAFVHRLKIKILQDAVTRFQGTILYVDSDIYFLKSIEPLFASISKTNLLMCNNEGRIHTGGNRIFEKFSAFIKKNTDYLKQHHIPIPYDITMWNAGVIGFLSTEKELLEKVLYTNDTIYNKFQSHVVEQLSFSYQLQKQGTLNAATDYLYHYWNFKEFRIVLAEFFKYHLNRGSVEQMIQDIDSIRPDVLIKPKLEYETLPFLKKNIRKLGGKKNRWKFPAYTIGQAATI” as the sequence, how does the “soluble on expression in E. coli” value read?
Answer: Its value is “not soluble”.

Question: For “MGSDKIHHHHHHMDTLFKALSDPARRAILDSLRARDGQSLTDLEPQLDMTRFGVMKHLKLLEDAGLIVTKRQGRFKYHYLNPMPLQEMLDRWVAPFLQPQARHLSDLKAKLERSHTMGKPDFMMQTFIRCTQDALWDALTKADQMAAYHFMCNEVRGNASVGNVTEFVLPDGNPMLRQVTTELDPKSRIAATFEPMFMGPDAPASHMVYLIEPQGETCKLTIEHYDMAPGQEGFAEGWARLASSLKSYLETGKAMKGAA”, which “soluble on expression in E. coli” value is on record?
Answer: Its value is “not soluble”.

Question: For “AAPGKPTIAWGNTKFAIVEVDQAATAYNNLVKVKNAADVSVSWNLWNGDTGTTAKILLNGKEAWSGPSTGSSGTANFKVNKGGRYQMQVALCNADGCTASDATEIVVADTDGSHLAPLKEPLLEKNKPYKQNSGKVVGSYFVEWGVYGRNFTVDKIPAQNLTHLLYGFIPICGGNGINDSLKEIEGSFQALQRSCQGREDFKVSIHDPFAALQKAQKGVTAWDDPYKGNFGQLMALKQAHPDLKILPSIGGWTLSDPFFFMGDKVKRDRFVGSVKEFLQTWKFFDGVDIDWEFPGGKGANPNLGSPQDGETYVLLMKELRAMLDQLSAETGRKYELTSAISAGKDKIDKVAYNVAQNSMDHIFLMSYDFYGAFDLKNLGHQTALNAPAWKPDTAYTTVNGVNALLTQGVKPGKIVVGTAMYGRGWTGVNGYQNNIPFTGTATGPVKGTWENGIVDYRQIASQFMSGEWQYTYDATAEAPYVFKPSTGDLITFDDARSVQAKGKYVLDKQLGGLFSWEIDADNGDILNSMNASLGNSAGVQLEHHHHHH”, which “soluble on expression in E. coli” value is on record?
Answer: The value was “soluble”.

Question: With “MTRLPKLAVFDLDYTLWPFWVDTHVDPPFHKSSDGTVRDRRGQNIQLYPEVPEVLGRLQSLGVPVAAASRTSEIQGANQLLELFDLGKYFIQREIYPGSKVTHFERLHHKTGVPFSQMVFFDDENRNIIDVGRLGVTCIHIRDGMSLQTLTQGLETFAKAQAGL” as the sequence, how does the “soluble on expression in E. coli” value read?
Answer: Its value is “soluble”.

Question: For “MAGDPMNVNVEDNAKVTLTSQGATKIYKTPSNHVEQYQTFNLKDNAYLEYVADPIIAYENAKFYQHNTFNLNNSSSLFYTDILTPGYSKTGEAFKYQYMHLINEIYIEDELVTYDNLLLNPNKQSINEIGYMEHYSHYGSAYFIHEDVNQKLIDSVYETISSYSNTFDCRVAISQLPTHGFAVRIFAYRTQIIEKILGIIQSYIAENIYDRKLDFLRKYLEHHHHHH”, which “soluble on expression in E. coli” value is on record?
Answer: The value was “not soluble”.

Question: Which “soluble on expression in E. coli” value does the source give for “MIIAGVDIGNSTTEVALAKVNGDEIRFLASGISNTTGIKGTPQNVEGVRHALEDAVRKANLTIKDIDLLRINEATPVISDIAMEAITETIITESTMIGHNPTTPGGVGLGIGITIPIFELEKCKHGEEVIVVIPKNVDYEDAAKIINNAFSKGVEVKGAIAQKDDGVLIATRLQRRIPIVDEVKQIEKVPIGMLACVEVAEPGYTIKTLSNPYGIASVFNLTAEETKNIVPVARALIGNRSAVVIRTPKGEVQERKIPAGTLIIKGNNRTFTVDIEEGAEAIMSAVESTWPLVDAEGTPGTNVGGLIARIKETMADVTGQDSSNIQIQDVLAVDTLVRQKVKGGIAEEFSSENAVALAAMVKSSKLPMEKVAQKIEQEIGIAVEIAGIEANMAIIGALTTPGTELPLAILDLGGGSTDAALMTKNGEVKSVHMAGAGEMVNMLIKTELGIEDKYLVEDIKKYPVCRVESLFSIRLEDGTVRFFKEPLDPRTFARVCLLREDGLLPLPPELNMEKVINVRRNAKRKVFVTNALRALSKVAPAGNIRLIDFVVMVGGSALDFEIPEMISDTLAGYGIVAGRGNIRNVEGPRNAVATGLVLSRCKRK” here?
Answer: The value was “not soluble”.

Question: With “MSRFDSGLPSVRQVQLLIKDQTPVEIKLLTGDSLFGTIRWQDTDGLGLVDDSERSTIVRLAAIAYITPRR” as the sequence, how does the “soluble on expression in E. coli” value read?
Answer: The value was “soluble”.

Question: With “VVSIVDTLMFDTGRAEVKPDFQKKLVEIGEILKTIDNYIRIEGHTDNTPISNSQYASNIELGSARSNNVEHLFIDVSKIPVTQMYTVSYADTRPVADNNSEAGKARNRRVDIVILNSKFNAVEQESSGK” as the sequence, how does the “soluble on expression in E. coli” value read?
Answer: The value was “not soluble”.

Question: For “SSQTGEKGKFPDAAGYVGFANLPNQVHRKSVKKGFEFTLMVVGESGLGKSTLINSLFLTDLYPERYIPGAAEKIERTVQIEASTVEIEERGVKLRLTVVDTPGYGDAINSQDCFKTIIQYIDNQFERYLHDESGLNRRHIVDNRVHCCFYFISPFGHGLKPLDVEFMKAIHSKVNIVPVIAKADTLTLKERDRLKRRILDEISEHGIRIYQLPDADSDEDEEFKDFVPNRCIWSSLQFYQMHIIAITFIDIMFVFKKAAHVISTTIIMVKLNIKCQ”, which “soluble on expression in E. coli” value is on record?
Answer: The value was “soluble”.

Question: With “MATASHNIDDILQLKDDTGVITVTADNYPLLSRGVPGYFNILYITMRGTNSNGMSCQLCHDFEKTYHAVADVIRSQAPQSLNLFFTVDVNEVPQLVKDLKLQNVPHLVVYPPAESNKQSQFEWKTSPFYQYSLVPENAENTLQFGDFLAKILNISITVPQAFNVQEEFHHHHHHHHHH” as the sequence, how does the “soluble on expression in E. coli” value read?
Answer: The value was “soluble”.

Question: Which “soluble on expression in E. coli” value does the source give for “MLIHYIDIAKRNFVIAVSSLSKTKTETNNPKGIAHTIEYLKKHKVALVVTESTGGLEIPAAKAIHRAGIAVIIANPRQTHQFAQSQSLTKTDAKDAKMPAFFAQMKAQKEDWQTMPYHPPTEAEEVLEALVNRRNQSADMRTAEKNRLHQVHETQVGSVKQLIAHFDRLIDESDKQIDDHTHTHFDGKAQVAEQIKGIGSITTATLMAMLPELGRLSHKRIASLVGIAPHPRKSGEAKFKSRCFGGRSAVLKALYMATVAATRFEPLIRDFHQRPLSEGKPYKVAVTACMRKLLETFAKFLSLTTTEIPTQVFGCFRPKYRLILPKHPLNPPRTPDNQASGLPFRRQRAHLACWRLSTGSNTSPSDGFAHSL” here?
Answer: The value was “not soluble”.

Question: For “MAFDKKLLDIVACPVCKGKLEYDKVAQQLICKADKLAYPITDGIPVLLENRALPLTESV”, which “soluble on expression in E. coli” value is on record?
Answer: The value was “not soluble”.
